B1: NT^Δβ8–β9 (RyR2 residues 1–906, residues 167–178 removed) (domain or fragment, human, UniProt Q92736 1-906, looked up)
chain: MADGGEGEDEIQFLRTDDEVVLQCTATIHKEQQKLCLAAEGFGNRLCFLESTSNSKNVPPDLSICTFVLEQSLSVRALQEMLANTVEKSEGQVDVEKWKFMMKTAQGGGHRTLLYGHAILLRHSYSGMYLCCLSTSRSSTDKLAFDVGLQEDTTGEACWWTIHPASDDLILVSVSSERYLHLSYGNGSLHVDAAFQQTLWSVAPISSGSEAAQGYLIGGDVLRLLHGHMDECLTVPSGEHGEEQRRTVHYEGGAVSVHARSLWRLETLRVAWSGSHIRWGQPFRLRHVTTGKYLSLMEDKNLLLMDKEKADVKSTAFTFRSSKEKLDVGVRKEVDGMGTSEIKYGDSVCYIQHVDTGLWLTYQSVDVKSVRMGSIQRKAIMHHEGHMDDGISLSRSQHEESRTARVIRSTVFLFNRFIRGLDALSKKAKASTVDLPIESVSLSLQDLIGYFHPPDEHLEHEDKQNRLRALKNRQNLFQEEGMINLVLECIDRLHVYSSAAHFADVAGREAGESWKSILNSLYELLAALIRGNRKNCAQFSGSLDWLISRLERLEASSGILEVLHCVLVESPEALNIIKEGHIKSIISLLDKHGRNHKVLDVLCSLCVCHGVAVRSNQHLICDNLLPGRDLLLQTRLVNHVSSMRPNIFLGVSEGSAQYKKWYYELMVDHTEPFVTAEATHLRVGWASTEGYSPYPGGGEEWGGNGVGDDLFSYGFDGLHLWSGCIARTVSSPNQHLLRTDDVISCCLDLSAPSISFRINGQPVQGMFENFNIDGLFFPVVSFSAGIKVRFLLGGRHGEFKFLPPPGYAPCYEAVLPKEKLKVEHSREYKQERTYTRDLLGPTVSLTQAAFTPIPVDTSQIVLPPHLERIREKLAENIHELWVMNKIELGWQYGP
notes: also called β8–β9 loop deletion; source: HEK293, transiently transfected, in cell homogenate (cross-linking) or CHAPS-solubilized lysate (co-IP); not shown: cMyc, N-terminal, kept
B2: NT^(E173A + K174A) (RyR2 residues 1–906) (domain or fragment, human, UniProt Q92736 1-906, looked up)
chain: MADGGEGEDEIQFLRTDDEVVLQCTATIHKEQQKLCLAAEGFGNRLCFLESTSNSKNVPPDLSICTFVLEQSLSVRALQEMLANTVEKSEGQVDVEKWKFMMKTAQGGGHRTLLYGHAILLRHSYSGMYLCCLSTSRSSTDKLAFDVGLQEDTTGEACWWTIHPASKQRSEGAAVRVGDDLILVSVSSERYLHLSYGNGSLHVDAAFQQTLWSVAPISSGSEAAQGYLIGGDVLRLLHGHMDECLTVPSGEHGEEQRRTVHYEGGAVSVHARSLWRLETLRVAWSGSHIRWGQPFRLRHVTTGKYLSLMEDKNLLLMDKEKADVKSTAFTFRSSKEKLDVGVRKEVDGMGTSEIKYGDSVCYIQHVDTGLWLTYQSVDVKSVRMGSIQRKAIMHHEGHMDDGISLSRSQHEESRTARVIRSTVFLFNRFIRGLDALSKKAKASTVDLPIESVSLSLQDLIGYFHPPDEHLEHEDKQNRLRALKNRQNLFQEEGMINLVLECIDRLHVYSSAAHFADVAGREAGESWKSILNSLYELLAALIRGNRKNCAQFSGSLDWLISRLERLEASSGILEVLHCVLVESPEALNIIKEGHIKSIISLLDKHGRNHKVLDVLCSLCVCHGVAVRSNQHLICDNLLPGRDLLLQTRLVNHVSSMRPNIFLGVSEGSAQYKKWYYELMVDHTEPFVTAEATHLRVGWASTEGYSPYPGGGEEWGGNGVGDDLFSYGFDGLHLWSGCIARTVSSPNQHLLRTDDVISCCLDLSAPSISFRINGQPVQGMFENFNIDGLFFPVVSFSAGIKVRFLLGGRHGEFKFLPPPGYAPCYEAVLPKEKLKVEHSREYKQERTYTRDLLGPTVSLTQAAFTPIPVDTSQIVLPPHLERIREKLAENIHELWVMNKIELGWQYGP
notes: cardiac ryanodine receptor (RyR2), N-terminus, residues 1-906, double alanine substitution E173 + K174; negative control mutant; source: HEK293, transiently transfected, in cell homogenate; not shown: cMyc, N-terminal, kept
B3: NT^(D179A + D180A) (RyR2 residues 1–906) (domain or fragment, human, UniProt Q92736 1-906, looked up)
chain: MADGGEGEDEIQFLRTDDEVVLQCTATIHKEQQKLCLAAEGFGNRLCFLESTSNSKNVPPDLSICTFVLEQSLSVRALQEMLANTVEKSEGQVDVEKWKFMMKTAQGGGHRTLLYGHAILLRHSYSGMYLCCLSTSRSSTDKLAFDVGLQEDTTGEACWWTIHPASKQRSEGEKVRVGAALILVSVSSERYLHLSYGNGSLHVDAAFQQTLWSVAPISSGSEAAQGYLIGGDVLRLLHGHMDECLTVPSGEHGEEQRRTVHYEGGAVSVHARSLWRLETLRVAWSGSHIRWGQPFRLRHVTTGKYLSLMEDKNLLLMDKEKADVKSTAFTFRSSKEKLDVGVRKEVDGMGTSEIKYGDSVCYIQHVDTGLWLTYQSVDVKSVRMGSIQRKAIMHHEGHMDDGISLSRSQHEESRTARVIRSTVFLFNRFIRGLDALSKKAKASTVDLPIESVSLSLQDLIGYFHPPDEHLEHEDKQNRLRALKNRQNLFQEEGMINLVLECIDRLHVYSSAAHFADVAGREAGESWKSILNSLYELLAALIRGNRKNCAQFSGSLDWLISRLERLEASSGILEVLHCVLVESPEALNIIKEGHIKSIISLLDKHGRNHKVLDVLCSLCVCHGVAVRSNQHLICDNLLPGRDLLLQTRLVNHVSSMRPNIFLGVSEGSAQYKKWYYELMVDHTEPFVTAEATHLRVGWASTEGYSPYPGGGEEWGGNGVGDDLFSYGFDGLHLWSGCIARTVSSPNQHLLRTDDVISCCLDLSAPSISFRINGQPVQGMFENFNIDGLFFPVVSFSAGIKVRFLLGGRHGEFKFLPPPGYAPCYEAVLPKEKLKVEHSREYKQERTYTRDLLGPTVSLTQAAFTPIPVDTSQIVLPPHLERIREKLAENIHELWVMNKIELGWQYGP
notes: cardiac ryanodine receptor (RyR2), N-terminus, residues 1-906, double alanine substitution D179 + D180; also called D179A + D180A mutant; source: HEK293, transiently transfected, in cell homogenate; not shown: cMyc, N-terminal, kept
B4: wild-type RyR2 N-terminus (NT, residues 1–906) tagged with the cMyc epitope (domain or fragment, human, UniProt Q92736 1-906, looked up)
chain: MADGGEGEDEIQFLRTDDEVVLQCTATIHKEQQKLCLAAEGFGNRLCFLESTSNSKNVPPDLSICTFVLEQSLSVRALQEMLANTVEKSEGQVDVEKWKFMMKTAQGGGHRTLLYGHAILLRHSYSGMYLCCLSTSRSSTDKLAFDVGLQEDTTGEACWWTIHPASKQRSEGEKVRVGDDLILVSVSSERYLHLSYGNGSLHVDAAFQQTLWSVAPISSGSEAAQGYLIGGDVLRLLHGHMDECLTVPSGEHGEEQRRTVHYEGGAVSVHARSLWRLETLRVAWSGSHIRWGQPFRLRHVTTGKYLSLMEDKNLLLMDKEKADVKSTAFTFRSSKEKLDVGVRKEVDGMGTSEIKYGDSVCYIQHVDTGLWLTYQSVDVKSVRMGSIQRKAIMHHEGHMDDGISLSRSQHEESRTARVIRSTVFLFNRFIRGLDALSKKAKASTVDLPIESVSLSLQDLIGYFHPPDEHLEHEDKQNRLRALKNRQNLFQEEGMINLVLECIDRLHVYSSAAHFADVAGREAGESWKSILNSLYELLAALIRGNRKNCAQFSGSLDWLISRLERLEASSGILEVLHCVLVESPEALNIIKEGHIKSIISLLDKHGRNHKVLDVLCSLCVCHGVAVRSNQHLICDNLLPGRDLLLQTRLVNHVSSMRPNIFLGVSEGSAQYKKWYYELMVDHTEPFVTAEATHLRVGWASTEGYSPYPGGGEEWGGNGVGDDLFSYGFDGLHLWSGCIARTVSSPNQHLLRTDDVISCCLDLSAPSISFRINGQPVQGMFENFNIDGLFFPVVSFSAGIKVRFLLGGRHGEFKFLPPPGYAPCYEAVLPKEKLKVEHSREYKQERTYTRDLLGPTVSLTQAAFTPIPVDTSQIVLPPHLERIREKLAENIHELWVMNKIELGWQYGP
notes: cardiac ryanodine receptor (RyR2), N-terminus, residues 1-906; species is stated for the full-length RyR2 cDNA (human), not for NT itself; also called NT^WT; source: HEK293, transiently transfected, in cell homogenate (cross-linking) or CHAPS-solubilized lysate (co-IP); not shown: cMyc, N-terminal, kept
B5: NT^(K167A + Q168A) (RyR2 residues 1–906) (domain or fragment, human, UniProt Q92736 1-906, looked up)
chain: MADGGEGEDEIQFLRTDDEVVLQCTATIHKEQQKLCLAAEGFGNRLCFLESTSNSKNVPPDLSICTFVLEQSLSVRALQEMLANTVEKSEGQVDVEKWKFMMKTAQGGGHRTLLYGHAILLRHSYSGMYLCCLSTSRSSTDKLAFDVGLQEDTTGEACWWTIHPASAARSEGEKVRVGDDLILVSVSSERYLHLSYGNGSLHVDAAFQQTLWSVAPISSGSEAAQGYLIGGDVLRLLHGHMDECLTVPSGEHGEEQRRTVHYEGGAVSVHARSLWRLETLRVAWSGSHIRWGQPFRLRHVTTGKYLSLMEDKNLLLMDKEKADVKSTAFTFRSSKEKLDVGVRKEVDGMGTSEIKYGDSVCYIQHVDTGLWLTYQSVDVKSVRMGSIQRKAIMHHEGHMDDGISLSRSQHEESRTARVIRSTVFLFNRFIRGLDALSKKAKASTVDLPIESVSLSLQDLIGYFHPPDEHLEHEDKQNRLRALKNRQNLFQEEGMINLVLECIDRLHVYSSAAHFADVAGREAGESWKSILNSLYELLAALIRGNRKNCAQFSGSLDWLISRLERLEASSGILEVLHCVLVESPEALNIIKEGHIKSIISLLDKHGRNHKVLDVLCSLCVCHGVAVRSNQHLICDNLLPGRDLLLQTRLVNHVSSMRPNIFLGVSEGSAQYKKWYYELMVDHTEPFVTAEATHLRVGWASTEGYSPYPGGGEEWGGNGVGDDLFSYGFDGLHLWSGCIARTVSSPNQHLLRTDDVISCCLDLSAPSISFRINGQPVQGMFENFNIDGLFFPVVSFSAGIKVRFLLGGRHGEFKFLPPPGYAPCYEAVLPKEKLKVEHSREYKQERTYTRDLLGPTVSLTQAAFTPIPVDTSQIVLPPHLERIREKLAENIHELWVMNKIELGWQYGP
notes: cardiac ryanodine receptor (RyR2), N-terminus, residues 1-906, double alanine substitution K167 + Q168; source: HEK293, transiently transfected, in cell homogenate; not shown: cMyc, N-terminal, kept
B6: NT^R176Q (RyR2 residues 1–906 with the arrhythmia-linked R176Q mutation) (domain or fragment, human, UniProt Q92736 1-906, looked up)
chain: MADGGEGEDEIQFLRTDDEVVLQCTATIHKEQQKLCLAAEGFGNRLCFLESTSNSKNVPPDLSICTFVLEQSLSVRALQEMLANTVEKSEGQVDVEKWKFMMKTAQGGGHRTLLYGHAILLRHSYSGMYLCCLSTSRSSTDKLAFDVGLQEDTTGEACWWTIHPASKQRSEGEKVQVGDDLILVSVSSERYLHLSYGNGSLHVDAAFQQTLWSVAPISSGSEAAQGYLIGGDVLRLLHGHMDECLTVPSGEHGEEQRRTVHYEGGAVSVHARSLWRLETLRVAWSGSHIRWGQPFRLRHVTTGKYLSLMEDKNLLLMDKEKADVKSTAFTFRSSKEKLDVGVRKEVDGMGTSEIKYGDSVCYIQHVDTGLWLTYQSVDVKSVRMGSIQRKAIMHHEGHMDDGISLSRSQHEESRTARVIRSTVFLFNRFIRGLDALSKKAKASTVDLPIESVSLSLQDLIGYFHPPDEHLEHEDKQNRLRALKNRQNLFQEEGMINLVLECIDRLHVYSSAAHFADVAGREAGESWKSILNSLYELLAALIRGNRKNCAQFSGSLDWLISRLERLEASSGILEVLHCVLVESPEALNIIKEGHIKSIISLLDKHGRNHKVLDVLCSLCVCHGVAVRSNQHLICDNLLPGRDLLLQTRLVNHVSSMRPNIFLGVSEGSAQYKKWYYELMVDHTEPFVTAEATHLRVGWASTEGYSPYPGGGEEWGGNGVGDDLFSYGFDGLHLWSGCIARTVSSPNQHLLRTDDVISCCLDLSAPSISFRINGQPVQGMFENFNIDGLFFPVVSFSAGIKVRFLLGGRHGEFKFLPPPGYAPCYEAVLPKEKLKVEHSREYKQERTYTRDLLGPTVSLTQAAFTPIPVDTSQIVLPPHLERIREKLAENIHELWVMNKIELGWQYGP
notes: cardiac ryanodine receptor (RyR2), N-terminus, residues 1-906, with the disease-linked (ARVD2, CPVT) mutation R176Q; source: HEK293, transiently transfected, in cell homogenate (cross-linking) or CHAPS-solubilized lysate (co-IP); not shown: cMyc, N-terminal, kept

Biological target: the molecule itself
Test: cross-linking; HEK293 cell homogenate (20 μg) with glutaraldehyde (0.0025% or 260 μmol/L) for 0 min to 1 h under reducing (10 mM DTT) conditions; SDS-PAGE and blot with Ab^cMyc; tetramer formation T = ODT/(ODT + ODM) × 100 by densitometry

Stoichiometry N, 4:
B1
B2
B3
B4
B5
B6

— article PMC7898959, “Identification of an amino-terminus determinant critical for ryanodine receptor/Ca^2+ release channel function” (Cardiovascular Research, 2020)
